From IntAct's records for PubMed 20511297 come the findings set out here.

B1: Fructokinase-like 2, chloroplastic (Arabidopsis thaliana (Mouse-ear cress)), F4I0K2 (parent)
chain: MASLSFTQFLSFPRCNADVPCLLQSHGFVKFRGERWNGKQSFSMAAGRRKLSESAPLEEEGNDGNGAVVGKKPSKSVKRTTKKKVVVKDEPLEEISEFLVDNDDVLDKESIVSALKPKKTRTRKKAAAASSDVEEVKTEKKVRRKRTVKKDKDVEDDLATIMDAEVSDVEEALAVESTDTESEEEEIDLSKHEGEDISHTYGWPPLVCCFGSAQHAFVPSGRPANRLLDYELHERMRDAKWAPEKYIRAPGGCAGGVAIALASLGGKVAFMGKLGADDYGQAMLYYLNVCKVQTRSVKIDGKRVTACSTMKISKRGRLKSTCIKPCAEDSLSKSEINVDVLKEAKMFYFSTHSLLDKKMMSTTIQAIKISKQLGNVIFYDLNLPLPLWHSSEETKSFIQEVWNLADVIEITKQELEFLCGIEPTEEFDTENNDISKFVHYPPETVEQLWHENLKVLFVTNGTSKIHYYTKEHNGAVSGMEDVPITPFTRDMSASGDGIVAGLIRMLTVQPDLMNNKGYLERTARYAIECGIIDQWLLAQTRGYPPKDDMEEEEDDEEEDEVESDPNGIRSITEKEYRTSKPYDEPDGPYVMKPVEEREYKKLELVGSMFEDGSL
partner: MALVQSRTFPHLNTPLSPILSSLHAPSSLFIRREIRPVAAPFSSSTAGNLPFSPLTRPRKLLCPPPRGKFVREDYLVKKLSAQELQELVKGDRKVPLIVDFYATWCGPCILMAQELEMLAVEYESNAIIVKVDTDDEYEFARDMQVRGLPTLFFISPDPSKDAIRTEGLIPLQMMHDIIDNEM
B2: Thioredoxin-like protein CITRX, chloroplastic (Arabidopsis thaliana (Mouse-ear cress)), Q9M7X9 (parent)
chain: B1 partner
partner: B1 chain
B3: Fructokinase-like 1, chloroplastic (Arabidopsis thaliana (Mouse-ear cress)), Q9M394 (parent)
chain: MASLLIFPHLHHFDSSLDRREVLVVRHSQASRRFLTPKASINGSGITNGAAAETTSKPSRKGRKKKQTSTVIEKDNTETDPELNPELADYDDGIEFPYDDPPLVCCFGAVQKEFVPVVRVHDNPMHPDMYSQWKMLQWDPPEFGRAPGGPPSNVAISHVRLGGRAAFMGKVGEDDFGDELVLMMNQERVQTRAVKFDENSKTACTRVKIKFKDGKMMAETVKEPPEDSLFASELNLAVLKEARIFHFNSEVLTSPTMQSTLFTAIQWSKKFGGLIFFDLNLPLPLWRSRNETRKLIKKAWNEANIIEVSQQELEFLLDEDYYERRRNYTPQYFAEDFDQTKNRRDYYHYTPEEIKSLWHDKLKLLVVTDGTLRLHYYTPTFDGVVIGTEDVLITPFTCDRTGSGDAVVAGIMRKLTTCPEMFEDQDVMERQLRFAVAAGIIAQWTIGAVRGFPTESATQNLKEQVYVPSMW
partner: B1 partner
B4: Thioredoxin-like protein CITRX, chloroplastic (Arabidopsis thaliana (Mouse-ear cress)), Q9M7X9 (parent)
chain: B1 partner
partner: B3 chain

In one assay the parent is B1. As to conditions: with citrx_arath CITRX, Q9M7X9.
On to C209A, for which the “effect of a mutation on the interaction” value is given as “decreasing interaction”. Still for that read-out and setting: then C208A, with “decreasing interaction”. As for C208A;C209A, the “effect of a mutation on the interaction” value is on record as “disrupting interaction”.

The next assay covers variants of B2. As to conditions: with sckl2_arath FLN2, F4I0K2.
Turning to MALVQSRTFPHLNTPLSPILSSLHAPSSLFIRREIRPVAAPFSSSTAGNLPFSPLTRPRKLLCPPPRGKFVREDYLVKKLSAQELQELVKGDRKVPLIVDFYATWSGPCILMAQELEMLAVEYESNAIIVKVDTDDEYEFARDMQVRGLPTLFFISPDPSKDAIRTEGLIPLQMMHDIIDNEM [C106S], the “effect of a mutation on the interaction” value is listed as “decreasing interaction”.

The variants in another assay derive from B3. As to conditions: with citrx_arath CITRX, Q9M7X9.
Take MASLLIFPHLHHFDSSLDRREVLVVRHSQASRRFLTPKASINGSGITNGAAAETTSKPSRKGRKKKQTSTVIEKDNTETDPELNPELADYDDGIEFPYDDPPLVCAFGAVQKEFVPVVRVHDNPMHPDMYSQWKMLQWDPPEFGRAPGGPPSNVAISHVRLGGRAAFMGKVGEDDFGDELVLMMNQERVQTRAVKFDENSKTACTRVKIKFKDGKMMAETVKEPPEDSLFASELNLAVLKEARIFHFNSEVLTSPTMQSTLFTAIQWSKKFGGLIFFDLNLPLPLWRSRNETRKLIKKAWNEANIIEVSQQELEFLLDEDYYERRRNYTPQYFAEDFDQTKNRRDYYHYTPEEIKSLWHDKLKLLVVTDGTLRLHYYTPTFDGVVIGTEDVLITPFTCDRTGSGDAVVAGIMRKLTTCPEMFEDQDVMERQLRFAVAAGIIAQWTIGAVRGFPTESATQNLKEQVYVPSMW [C106A]: the “effect of a mutation on the interaction” value is “decreasing interaction”. As to MASLLIFPHLHHFDSSLDRREVLVVRHSQASRRFLTPKASINGSGITNGAAAETTSKPSRKGRKKKQTSTVIEKDNTETDPELNPELADYDDGIEFPYDDPPLVASFGAVQKEFVPVVRVHDNPMHPDMYSQWKMLQWDPPEFGRAPGGPPSNVAISHVRLGGRAAFMGKVGEDDFGDELVLMMNQERVQTRAVKFDENSKTACTRVKIKFKDGKMMAETVKEPPEDSLFASELNLAVLKEARIFHFNSEVLTSPTMQSTLFTAIQWSKKFGGLIFFDLNLPLPLWRSRNETRKLIKKAWNEANIIEVSQQELEFLLDEDYYERRRNYTPQYFAEDFDQTKNRRDYYHYTPEEIKSLWHDKLKLLVVTDGTLRLHYYTPTFDGVVIGTEDVLITPFTCDRTGSGDAVVAGIMRKLTTCPEMFEDQDVMERQLRFAVAAGIIAQWTIGAVRGFPTESATQNLKEQVYVPSMW [C105A;C106S], the “effect of a mutation on the interaction” value is reported as “disrupting interaction”.

In another assay the parent is B4. As to conditions: with sckl1_arath FLN1, Q9M394.
Take MALVQSRTFPHLNTPLSPILSSLHAPSSLFIRREIRPVAAPFSSSTAGNLPFSPLTRPRKLLCPPPRGKFVREDYLVKKLSAQELQELVKGDRKVPLIVDFYATWSGPCILMAQELEMLAVEYESNAIIVKVDTDDEYEFARDMQVRGLPTLFFISPDPSKDAIRTEGLIPLQMMHDIIDNEM [C106S]: the “effect of a mutation on the interaction” value is listed as “decreasing interaction”.
